# Experimental data published in patent US20250122266A1 (TEXAS A AND M UNIVERSITY SYSTEM, published 2025).
# B1: GFP-sunbody (anti-mCherry nanobody LaM8 with LOV2 at S0 and S3) (VHH, not shown: large carriers)
# chain: LATTLERIEKNFVITDPRLPDNPIIFASDSFLQLTEYSREEILGRNCRFLQGPETDRATVRKIRDAIDNQTEVTVQLINYTKSGKKFWNLFHLQPMRDQKGDVQYFIGVQLDGTEHVRDAAEREGVMLIKKTAENIDEAAKELKLMAQVQLVESGGGLVQAGGSLRLSCAVSGRPFSEYNLGWFRQAPGKEREFVARIRSSGTTVYTDSVKGRFSASRDNALERIEKNFVITDPRLPDNPIIFASDSFLQLTEYSREEILGRNCRFLQGPETDRATVRKIRDAIDNQTEVTVQLINYTKSGKKFWNLFHLQPMRDQKGDVQYFIGVQLDGTEHVRDAAEREGVMLIKKTAENIDEAAKNMGYLQLNSLEPEDTAVYYCAMSRVDTDSPAFYDYWGQGTQVTVSTPRS
# notes: also called S0+S3; anti-mCh GFP-tagged sunbody
# B2: GFP-2xsunbody (dimeric concatemer of sunbody) (VHH, not shown: large carriers)
# chain: LATTLERIEKNFVITDPRLPDNPIIFASDSFLQLTEYSREEILGRNCRFLQGPETDRATVRKIRDAIDNQTEVTVQLINYTKSGKKFWNLFHLQPMRDQKGDVQYFIGVQLDGTEHVRDAAEREGVMLIKKTAENIDEAAKELKLMAQVQLVESGGGLVQAGGSLRLSCAVSGRPFSEYNLGWFRQAPGKEREFVARIRSSGTTVYTDSVKGRFSASRDNALERIEKNFVITDPRLPDNPIIFASDSFLQLTEYSREEILGRNCRFLQGPETDRATVRKIRDAIDNQTEVTVQLINYTKSGKKFWNLFHLQPMRDQKGDVQYFIGVQLDGTEHVRDAAEREGVMLIKKTAENIDEAAKNMGYLQLNSLEPEDTAVYYCAMSRVDTDSPAFYDYWGQGTQVTVSTPRSLATTLERIEKNFVITDPRLPDNPIIFASDSFLQLTEYSREEILGRNCRFLQGPETDRATVRKIRDAIDNQTEVTVQLINYTKSGKKFWNLFHLQPMRDQKGDVQYFIGVQLDGTEHVRDAAEREGVMLIKKTAENIDEAAKELKLMAQVQLVESGGGLVQAGGSLRLSCAVSGRPFSEYNLGWFRQAPGKEREFVARIRSSGTTVYTDSVKGRFSASRDNALERIEKNFVITDPRLPDNPIIFASDSFLQLTEYSREEILGRNCRFLQGPETDRATVRKIRDAIDNQTEVTVQLINYTKSGKKFWNLFHLQPMRDQKGDVQYFIGVQLDGTEHVRDAAEREGVMLIKKTAENIDEAAKNMGYLQLNSLEPEDTAVYYCAMSRVDTDSPAFYDYWGQGTQVTVSTPRS
# notes: also called tandem sunbody
# Experiments:
# [1] = biological target: T1, NE-tethered mCh-lamin A (UniProt P02545 1-664); assay: NE/NP ratio of GFP signal in HeLa cells, before and after light
# [2] = biological target: T1, NE-tethered mCh-lamin A; assay: nucleoplasmic GFP signal in HeLa cells over dark-light cycles
# [3] = biological target: T2, plasma membrane targeting mCh (mCh-CAAX); assay: cytosol-to-plasma-membrane translocation in HeLa cells under light
# T2 construct: also called mCh tethered to PM
# [4] = biological target: mCh tethered to early endosome [EE]; assay: cytosol-to-early-endosome translocation in HeLa cells under light
# T1 sequence (P02545 whole entry): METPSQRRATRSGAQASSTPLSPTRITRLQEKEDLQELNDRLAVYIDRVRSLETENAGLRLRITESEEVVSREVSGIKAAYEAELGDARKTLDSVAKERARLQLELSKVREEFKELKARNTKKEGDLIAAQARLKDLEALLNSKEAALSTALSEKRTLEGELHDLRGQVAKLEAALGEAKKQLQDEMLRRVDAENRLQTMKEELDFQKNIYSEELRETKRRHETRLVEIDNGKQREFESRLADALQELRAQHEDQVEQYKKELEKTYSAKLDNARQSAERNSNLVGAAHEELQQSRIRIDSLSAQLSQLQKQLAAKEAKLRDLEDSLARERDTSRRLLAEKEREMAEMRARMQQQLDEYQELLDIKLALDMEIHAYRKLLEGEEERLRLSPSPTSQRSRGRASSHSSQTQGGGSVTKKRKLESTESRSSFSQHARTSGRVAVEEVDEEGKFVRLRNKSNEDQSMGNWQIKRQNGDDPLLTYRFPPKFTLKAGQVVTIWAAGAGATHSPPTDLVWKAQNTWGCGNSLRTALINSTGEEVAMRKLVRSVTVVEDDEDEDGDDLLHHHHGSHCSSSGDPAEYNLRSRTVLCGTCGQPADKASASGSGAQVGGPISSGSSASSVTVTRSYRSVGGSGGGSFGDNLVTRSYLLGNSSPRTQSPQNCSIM
Binder,light-induced change in the NE/NP ratio [1],"half-life of light-triggered translocation to the antigen (t½, on) [2]",fold increase in the signal-to-background ratio against 1x sunbody [3],fold increase in the signal-to-background ratio against 1x sunbody [4]
B1,> 80%,2.6 s,,
B2,,,> 2 fold,> 2 fold
